Data published in patent publication US20260250420A1 (SICHUAN KELUN BIOTECH BIOPHARMACEUTICAL, published 2026).

T1: human PTK7 on cells (tumor cells endogenously expressing PTK7); CHO-hPTK7, CHO-S-hPTK7 and 293T-hPTK7 … (human, UniProt Q13308 31-1070)
T1 construct: whole, on cells; The cell line of each value is named under assay; also called H1299; H358
T1 sequence (looked up): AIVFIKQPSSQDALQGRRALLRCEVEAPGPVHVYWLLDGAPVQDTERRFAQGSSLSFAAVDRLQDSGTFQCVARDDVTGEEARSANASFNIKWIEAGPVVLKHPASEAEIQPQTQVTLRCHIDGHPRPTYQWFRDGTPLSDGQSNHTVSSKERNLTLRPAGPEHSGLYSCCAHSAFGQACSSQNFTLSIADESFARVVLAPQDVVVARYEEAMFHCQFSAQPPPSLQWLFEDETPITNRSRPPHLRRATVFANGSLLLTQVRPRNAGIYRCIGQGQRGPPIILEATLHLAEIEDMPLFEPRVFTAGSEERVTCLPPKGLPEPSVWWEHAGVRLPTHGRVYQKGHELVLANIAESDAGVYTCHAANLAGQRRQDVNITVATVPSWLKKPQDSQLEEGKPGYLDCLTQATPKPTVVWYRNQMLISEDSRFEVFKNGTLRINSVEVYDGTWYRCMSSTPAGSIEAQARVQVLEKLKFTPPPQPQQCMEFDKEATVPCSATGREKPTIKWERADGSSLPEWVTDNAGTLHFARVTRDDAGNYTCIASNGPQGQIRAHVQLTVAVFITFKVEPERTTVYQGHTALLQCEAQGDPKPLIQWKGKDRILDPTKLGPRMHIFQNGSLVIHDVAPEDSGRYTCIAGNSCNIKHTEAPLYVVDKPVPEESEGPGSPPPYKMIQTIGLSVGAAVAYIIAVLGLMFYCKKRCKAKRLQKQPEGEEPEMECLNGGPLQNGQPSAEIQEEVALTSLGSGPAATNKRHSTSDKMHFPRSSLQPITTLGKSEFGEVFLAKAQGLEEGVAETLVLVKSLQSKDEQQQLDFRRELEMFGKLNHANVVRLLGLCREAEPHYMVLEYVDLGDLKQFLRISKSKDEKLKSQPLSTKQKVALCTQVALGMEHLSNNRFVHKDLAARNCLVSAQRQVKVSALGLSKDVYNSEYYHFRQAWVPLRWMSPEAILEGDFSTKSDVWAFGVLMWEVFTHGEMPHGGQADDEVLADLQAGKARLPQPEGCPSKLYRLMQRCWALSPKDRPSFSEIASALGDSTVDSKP

T2: human PTK7 protein (extracellular sequence of human PTK7 with C-terminal 6×His tag) (human, UniProt Q13308 31-704)
T2 construct: extracellular domain; Expressed transiently in HEK293 cells; also called human PTK7-His; human PTK7-His protein
T2 sequence: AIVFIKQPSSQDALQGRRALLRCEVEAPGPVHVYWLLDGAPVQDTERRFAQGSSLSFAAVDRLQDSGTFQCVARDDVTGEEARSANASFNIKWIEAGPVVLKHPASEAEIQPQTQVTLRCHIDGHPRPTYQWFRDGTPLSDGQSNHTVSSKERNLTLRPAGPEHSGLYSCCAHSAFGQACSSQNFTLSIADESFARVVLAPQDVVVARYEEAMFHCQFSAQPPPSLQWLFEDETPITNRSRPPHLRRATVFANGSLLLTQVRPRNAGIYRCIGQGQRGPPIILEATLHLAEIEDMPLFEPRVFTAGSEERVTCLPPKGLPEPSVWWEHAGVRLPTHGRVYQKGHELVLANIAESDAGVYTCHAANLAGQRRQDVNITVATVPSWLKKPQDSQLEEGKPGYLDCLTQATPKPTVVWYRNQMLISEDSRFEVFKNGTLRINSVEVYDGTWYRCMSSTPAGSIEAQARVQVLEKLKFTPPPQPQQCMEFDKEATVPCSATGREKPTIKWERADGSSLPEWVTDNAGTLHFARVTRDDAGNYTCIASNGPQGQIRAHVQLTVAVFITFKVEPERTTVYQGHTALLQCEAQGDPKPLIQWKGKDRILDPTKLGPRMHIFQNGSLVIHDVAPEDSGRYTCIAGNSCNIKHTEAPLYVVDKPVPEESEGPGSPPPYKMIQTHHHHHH


What was measured:
[1] = target: T1, human PTK7 on cells (tumor cells …); test: flow cytometry on CHO-hPTK7 overexpression cells
Description: (§1) A flow cytometer (Beckman, Cytoflex) was used for detecting the affinity of the anti-human PTK7 chimeric and humanized antibodies with human non-small cell lung cancer cells H1299, human lung adenocarcinoma cells H1975, human breast cancer cells T47D, human ovarian cancer cells OVCAR-3 (all purchased from NANJING COBIOER BIOSCIENCES CO., LTD) and CHO-hPTK7 overexpression cells.
(§2) The adherent cells were digested by using a pancreatin (Gibco) solution; a proper amount of cells were counted and taken, washed twice by using 1×PBS, and re-suspended in a 1% BSA solution; and then the cells were transferred into a 96-well deep plate at a density of 50 μl/well; a candidate antibody was diluted by using 1% BSA, then 50 μl of diluted antibody was added into the deep plate containing the cells, and incubated for 40 min at 4° C.; the cells were washed twice by using PBS, then 50 μl of diluted secondary antibody was added into each well, uniformly mixed, and incubated for 30 min at 4° C.; and the cells were washed twice by using PBS, then re-suspended in 400 μl of PBS, and subjected to examination by flow cytometer.

[2] = target: T1, human PTK7 on cells (tumor cells …); test: flow cytometry on T47D cells
Description: as §1, §2

[3] = target: T2, human PTK7 protein (extracellular …); test: BLI (ForteBio), antibody on Protein A sensor, human PTK7-His 200-3.125 nM, 1:1 global fit
Description: The dynamic affinity of the control Hu24 and candidate antibodies 64A10HZ, 101A6HZ, 4E12HZ and 19C2HZ with human PTK7-His was detected by using ForteBio (Pall life sciences).

[4] = target: T3, human Fc receptor protein CD64 (human, UniProt P12314 16-292, limits assumed, biotinylated); test: BLI (ForteBio), biotinylated receptor on SA sensor, antibody from 5,000 nM, 1:1 global fit
T3 construct: Biotinylated protein captured on SA sensors
T3 sequence (P12314 16-292 limits assumed): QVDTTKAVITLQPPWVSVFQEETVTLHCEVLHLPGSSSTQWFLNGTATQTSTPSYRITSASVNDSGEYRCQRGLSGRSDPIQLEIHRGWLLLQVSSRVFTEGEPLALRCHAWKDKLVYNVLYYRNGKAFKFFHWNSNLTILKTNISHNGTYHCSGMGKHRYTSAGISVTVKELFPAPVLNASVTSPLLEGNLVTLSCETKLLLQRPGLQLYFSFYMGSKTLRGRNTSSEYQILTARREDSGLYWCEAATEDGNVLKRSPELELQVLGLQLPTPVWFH
Description: The dynamic affinity of the antibodies 101A6HZ, 101A6HZm and Hu24 with human Fc receptor proteins CD16a, CD32a, CD32b, CD64 and FcRn was detected through ForteBio (Pall life sciences).

[5] = target: T1, human PTK7 on cells (tumor cells …); test: flow cytometry on OVCAR-3 cells
Description: as §1, §2

| Binder | EC50 [1] [µg/mL] | EC50 [2] [µg/mL] | Kd [3] [nM] | koff [3] [s⁻¹] | kon [3] [M⁻¹ s⁻¹] | Kd [4] [nM] | EC50 [5] [µg/mL] |
| --- | --- | --- | --- | --- | --- | --- | --- |
| 101A6HZ (anti-human PTK7 humanized antibody) (antibody, human IgG1, kappa) heavy: not shown light: DIVMTQSPDSLAVSLGERATINCKASQDVGSAVIWYQQKPGQSPKLLIYWASTRHTGVPDRFSGSGSGTDFTLTISSLQAEDVAVYYCQQYSSYPLTFGQGTKLEIKRTVAAPSVFIFPPSDEQLKSGTASVVCLLNNFYPREAKVQWKVDNALQSGNSQESVTEQDSKDSTYSLSSTLTLSKADYEKHKVYACEVTHQGLSSPVTKSFNRGEC | 0.176 | 0.0968 | 42.4 | 0.00566 | 134000 | 0.508 | – |
| 64A10HZ (anti-human PTK7 humanized antibody) (antibody, human IgG1, kappa, V domains shown, Human IgG1 heavy chain constant region and human Kappa light chain constant region; expressed in CHO-S cells) VH: QVQLQESGPGLVKPSETLSLTCTVSGFSLTSYGVYWVRQPPGKGPEWLGVIWTSGNTNYNPSLKSRLTISKDNSKNQVSLKLSSVTAADTAVYYCVKHDGGNYVGVMNYWGQGTLVTVSS VL: EIVMTQSPDFQSVTPKEKVTITCRASQSISDYLHWYQQKPDQSPKLLIKYASQSISGVPSRFSGSGSGSDFTLTINSLEAEDAATYYCQNGHSFPPTFGQGTKLEIKR | – | 0.217 | 10.9 | 0.00278 | 255000 | – | 0.0613 |
| Hu24 (PTK7 control antibody, taken from Hu24 in the Patent CN201580030255) (antibody) chain 1: QVQLVQSGPEVKKPGASVKVSCKASGYTFTDYAVHWVRQAPGKRLEWIGVISTYNDYTYNNQDFKGRVTMTRDTSASTAYMELSRLRSEDTAVYYCARGNSYFYALDYWGQGTSVTVSS chain 2: EIVLTQSPATLSLSPGERATLSCRASESVDSYGKSFMHWYQQKPGQAPRLLIYRASNLESGIPARFSGSGSGTDFTLTISSLEPEDFAVYYCQQSNEDPWTFGGGTKLEIK | 0.308 | 0.0861 | 4.96 | 0.00105 | 211000 | 0.465 | 0.123 |
